{
  "source": "the DeepSol protein solubility set",
  "test": "soluble on expression in E. coli; label from the status in PepcDB or PDB records",
  "data": [
    {"sequence": "MGSDKIHHHHHHMPPPVRVNWPRMRTTRRQTVTTWVGNVPVGSSHPIVVQSMTNTDTANAEATALQVAQLARAGSEIVRVTVNTREAAAALPEIVARLHDLGLDVPLVGDFHYNGHLLLREYPETARLLAKYRINPGNVGAGQHHDANFATMIEVAKTYGKPVRIGVNWGSLDQQVLARLMDENARRGSPKSGTDVMIDAMVTSALESAAYAEGLGLPHDRIIISVKVSSAPELWQVYRQLAPLCDYPLHLGLTEAGMGMKGMVASSVALAPLLSEGIGDTIRVSLTPEPGAPRKLEVEVAQQILQSLGLRQFLPQVTSCPGCGRTTSTFFQELARKIQDYIRDAMPEWKAKYPGVEDMQVAVMGCIVNGPGESKHANIGISLPGTGEDPRAPVYQDGKLLTTLKGPRIAEDFQELLEKYVEERYGHKSAHTTVQE", "values": [
      {"measurement": "soluble on expression in E. coli", "result": "not soluble"}
    ]},
    {"sequence": "SMSVKKPKRDDSKDLALCSMILTEMETHEDAWPFLLPVNLKLVPGYKKVIKKPMDFSTIREKLSSGQYPNLETFALDVRLVFDNCETFNEDDSDIGRAGHNMRKYFEKKWTDTFKVS", "values": [
      {"measurement": "soluble on expression in E. coli", "result": "soluble"}
    ]},
    {"sequence": "SNAMPQQKNFVTMPAQHQNKQPGIESLMNPLPQFEDPNYKGSEKLKGKNVLITGGDSGIGRAVSIAFAKEGANIAIAYLDEEGDANETKQYVEKEGVKCVLLPGDLSDEQHCKDIVQETVRQLGSLNILVNNVAQQYPQQGLEYITAEQLEKTFRINIFSYFHVTKAALSHLKQGDVIINTASIVAYEGNETLIDYSATKGAIVAFTRSLSQSLVQKGIRVNGVAPGPIWTPLIPSSFDEKKVSQFGSNVPMQRPGQPYELAPAYVYLASSDSSYVTGQMIHVNGGVIVNG", "values": [
      {"measurement": "soluble on expression in E. coli", "result": "soluble"}
    ]},
    {"sequence": "MSLKLISNDLRDGDKLPHRHVFNGMGYDGDNISPHLAWDDVPAGTKSFVVTCYDPDAPTGSGWWHWVVVNLPADTRVLPQGFGSGLVAMPDGVLQTRTDFGKTGYDGAAPPKGETHRYIFTVHALDIERIDVDEGASGAMVGFNVHFHSLASASITAMFSEGGSHHHHHH", "values": [
      {"measurement": "soluble on expression in E. coli", "result": "soluble"}
    ]},
    {"sequence": "MGSDKIHHHHHHMKRVVITGMGIVSPFGVGKERNLEGLRETKVTIDRISSFDASNLPVQIAAEVRDFKPEEYINPKLVRRTDRFVHFALVSAKEAVEDAGINFEPYADRTATIIGSGMGGFLTLDSENNKFLSQGPSRVSPFLIPMILIDMASGVVAMEYGLKGPNFSSVSACASSLHAVALGALLIRHGYADVAVVGGTEATIAPLPITGFANMRALSRRNDDPKRASRPFDKDRDGFVMGEGGAVLILEAEEVAKSRGAKILAEIKGVGMTDDAYHFSAPDPEGRGAAEAMKLALKESSLAVEDIDYVSCHATSTPAGDEAELKAIKKVLGEHVKNVAINSSKALIGHLLGAAGASELVLAILQMQNSFVHGMPNLDNPIDEAKGTGLVGKEPVQMEIKNFIKNSFGFGGHNVSIVVGRYES", "values": [
      {"measurement": "soluble on expression in E. coli", "result": "not soluble"}
    ]},
    {"sequence": "MEKNMKIELITIKEFIEQAECYFRNYMDGLRRNAPDDFYYFLNNKYNMNDIMESIIKKTRYHFYDDTEEGKRNRIYGEVNHCKVKQHLRQLWIVYKCVYR", "values": [
      {"measurement": "soluble on expression in E. coli", "result": "soluble"}
    ]},
    {"sequence": "MKNKLFASALCAAALFTTNAMAKDQELYFYNWSEYIPSEVLEDFTKETGIKVIYSTYESNESMYAKLKTQGAGYDLVVPSTYFVSKMRKEGMLQEIDHSKLSHFKDLDPNYLNKPFDPGNKFSIPYIWGATGIGINTDMLDKKSLKNWGDLWDAKWAGQLMLMDDAREVFHIALSKLGYSPNTTNPKEIKAAYRELKKLMPNVLVFNSDFPANPYLAGEVSLGMLWNGSAYMARQEGAPIQIIWPEKGTIFWMDSISIPAGAKNIEAAHKMIDFLLRPENAAKIALEIGYPTPVKTAHDLLPKEFANDPSIYPPQSVIDNGEWQDEVGEASVLYDEYFQKLKVND", "values": [
      {"measurement": "soluble on expression in E. coli", "result": "soluble"}
    ]},
    {"sequence": "MGSDKIHHHHHHMVERALALSELNQSEPVELVSNSKPSYPDLGEAVSVEVLVGWGKEAIAIIRDNYPDVLCNSDWECDVETTRLVNTQGLDCYYSDTTLSCYMSAEWVRGDDFLSVSDGQTQRDYLDPEKLAYQILQRLVWAKENVPPPNGRVPVLFTSKAADMLWGTAQAALNGKRVLEAASPWAERVGKQVIAPSLTLYQDPQAGPYSCPFDDEGTPTKSLVFIEKGILQNYYCDRTTGRQLGNSTTGNGFRPGLGSYPTPGLFNFLIKPGSKSLKDLIQNMDDGLIVDQMLGGSGGISGDFSINIELGYRVQKGQVIGRVKDTMVAGNVYTALKQVELGSDADWNGSCYTPSLIVEGLSTTGRNN", "values": [
      {"measurement": "soluble on expression in E. coli", "result": "not soluble"}
    ]},
    {"sequence": "MGQRKYGGPPPGWDSTPPERGCEIFIGKLPRDLFEDELIPLCEKIGKIYEMRLMMDFNGNNRGYAFVTFSNKQEAKNAIKQLNNYEIRTGRLLGVCASVDNCRLFVGGIPKTKKREEILSEMKKVTEGVVDVIVYPSAADKTKNRGFAFVEYESHRAAAMARRRLLPGRIQLWGHPIAVDWAEPEVEVDEDTMSSVKILYVRNLMLSTSEEMIEKEFNSIKPGAVERVKKIRDYAFVHFSNREDAVEAMKALNGKVLDGSPIEVTLAKPVDKDSYVRYTRGTGGRNTMLQGEYTYPLSHVYDTTTTYLGAPVFYTPQAYAAIPSLHFPATKGHLSNRALIRTPSVRGNTS", "values": [
      {"measurement": "soluble on expression in E. coli", "result": "soluble"}
    ]},
    {"sequence": "MKIHPTAIIDPKAELHESVEVGPYSIIEGNVSIQEGTIIEGHVKICAGSEIGKFNRFHQGAVIGVMPQDLGFNQQLLTKTVIGDHNIFREYSNIHKGTKEDSPTVIGNKNYFMGNSHVGHDCILGNNNILTHGAVLAGHVTLGNFAFISGLVAVHQFCFVGDYSMVAGLAKVVQDVPPYSTVDGNPSTVVGLNSVGMKRAGFSPEVRNAIKHAYKVIYHSGISTRKALDELEASGNLIEQVKYIIKFFRDSDRGVTNHR", "values": [
      {"measurement": "soluble on expression in E. coli", "result": "soluble"}
    ]},
    {"sequence": "MKFTVGNGQNQHKGVNDGFSYEIWLDNTGGNGSMTLGSGATFKAEWNAAVNRGNFLARRGLDFGSQKKATDYDYIGLDYAATYKQTASASGNSRLCVYGWFQNRGLNGVPLVEYYIIEDWVDWVPDAQGKMVTIDGAQYKIFQMDHTGPTINGGSETFKQYFSVRQQKRTSGHITVSDHFKEWAKQGWGIGNLYEVALNAEGWQSSGVADVTLLDVYTTPKGSSPALEHHHHHH", "values": [
      {"measurement": "soluble on expression in E. coli", "result": "soluble"}
    ]},
    {"sequence": "MGHHHHHHSHAKGKERQWLRHQATGELDDAKIIDGLTGEKAIYKRRGELEPQLGSPQQKPKRLRLVVDVSGSMYRFNRMDGRLERTMEAVCMVMEAFENYEEKFQYDIVGHSGDGYNIGLVPMNKIPKDNKQRLEILKTMHAHSQFCMSGDHTLEGTEHAIKEIVKEEADEYFVIVLSDANLSRYGIHPAKFAQILTRDPQVNAFAIFIGSLGDQATRLQRTLPAGRSFVAMDTKDIPQILQQIFTSTMLSSV", "values": [
      {"measurement": "soluble on expression in E. coli", "result": "not soluble"}
    ]},
    {"sequence": "MKHSNKPYDSFQDELEDYIKVQKARGLEPKTCFRRMRGEYLESCGYREEFDSRPRYRMFDQRLPSGTNHSYPRSCSSSQTEDRVPQWLPAHDKIRLNSLSYCQFTRDGFSEKPVPLNLSQQEYNCGSYSVESVVHKRLCSEHSTIDPQVSHRQMHQKRKKHVEEGREKQEERPKHERKRSSEEMDLNKHRSIQRKKTKAETETVQDGTEKLKNRKEKKTRDVSSKKEDRKRRKEKKEQGEERTEEEMLWDQSILGF", "values": [
      {"measurement": "soluble on expression in E. coli", "result": "not soluble"}
    ]},
    {"sequence": "MGSDKIHHHHHHMNLTGCGEKFYQHCKVILSEFEWATYEISYNQQYPEGELKLNTPMSFSNIFLQHIISDFIEKYPSIKIDLFMTDQLLDVNQHKFDLTIRLDGSAPSLANSKILNTYQRYLYATPEYFNQHGLPTSLEELKEHKFLIYYQDSRHKKLIFQKDQKEVSFNCFPVMTCNNGELLLDMCLKDHGIVFLPEFIAEPYYKEGKLQKCLEDYTSQPLHLYVTWPNRKILSKKVKLFIDFLTHQIIPIK", "values": [
      {"measurement": "soluble on expression in E. coli", "result": "not soluble"}
    ]},
    {"sequence": "MSDIKHEKKLANMDTPGETTKSFENKLDEEIPDIEESDFINSPPFSDEIFSPEDSKQVEISELSKQAYSLLKGNSITEAINVFKKILELDPTNNYALVGLGDAERKNNKFNEAIKFYKQCLEHHPSNNYALFGLADCYKSMNQFPRAIAIWEEYLKFDDKNITVLTRVADAYRKTKEFEKAEKLYQKVLEKSPKNAYALIGLGHLNYDFKKYREALVYWEKVMESSGELVDIRILTSIGNCYRKMKLFDRGVYYFERALERSPDNFYGLFGLADCYRGLNQQYNSIVYWKKILELDPNNKVILTRIGDAYRSMNDFEKAKESYQKALDIDFDSYAMLGLAILCKLQQKYDQAITTLTHLKDTGDTNYNYRVYLELAQCYIEKKEKQKAIETLIDFQKLGIKNQTVSDLLFELTKNDH", "values": [
      {"measurement": "soluble on expression in E. coli", "result": "not soluble"}
    ]},
    {"sequence": "MSWWKRIFSRSESSTTESNSASSLPAADLDDDLLVEVKNLVAITGPKMPYELARLLKISHARATRLAAAANAQNPTPSRARTSDAQAQQPAAASPKPPAEPVAAEPKKKRAKKATPVEAGLPPLTGKITGGHACAFDVVGESYYQPALRRLRNGRHMATDNDFVADIVAEPDNPHDPNACAVYIEGFKVGYLPRDAAADFQQQVADMGVTGTWRLQTKAKLSGGWGDRPMVGVLLSLPKSLEHHHHHH", "values": [
      {"measurement": "soluble on expression in E. coli", "result": "not soluble"}
    ]},
    {"sequence": "MVESENKDIEESGAEVDRRDVRSLVRKLSDNNWEIPKGHIPNMRVPGRLFVSEKLLEGIEPGTIDQIANVATLPGIQKYSMAMPDAHLGYGFAIGGVAAFDVEEGVISPGGVGFDINCGVRLIRTNLQKEDVVPHIKRLTDELFSNVPSGVGSKSRFKASDKELDSAFLEGAKWAVDAGYGVEADVEHCEGNGFLEGADTSHVSSKARNRGKPQLGTLGSGNHFLEVQYVDEIYDPEVASAFGLEEGQVTVMVHCGSRGAGHQICTDHLKELSQAVKRYGIEIPDKQLACAPAQSKEAQNYFKAMLCAANYAWANRQMITHWTRESFEKIFGRDADDMEMSLLYDVAHNVAKLEEHSIEGRKKEVYVHRKGATRAFPAGHPEVPSAYRDVGQPVLIPGSMGTPSFILCGSTESMDVSFGSACHGAGRVMSRAHAKKEFHGQSIKEDLEAHGITVRATHPSVIAEEAPGVYKSSSEVVNVVHELGIARKVARVIPLGVAKGLEHHHHHH", "values": [
      {"measurement": "soluble on expression in E. coli", "result": "not soluble"}
    ]},
    {"sequence": "DDIDYANAEYYLGNTYDLVILDTVDNFQPINIGRLVDLARGGGLIIIYTNNLIKDKTFRTSIMRNGLILDEYEKRFKRKLYEHEGIFIIDVNEYIPKPFSGNTM", "values": [
      {"measurement": "soluble on expression in E. coli", "result": "not soluble"}
    ]},
    {"sequence": "MGSDKIHHHHHHALPDPVKPKAPKAVNPFHLGMAGYTFVNFDLDTTLKTLERLDIHYLCIKDFHLPLNSTDEQIRAFHDKCAAHKVTGYAVGPIYMKSEEEIDRAFDYAKRVGVKLIVGVPNYELLPYVDKKVKEYDFHYAIHLHGPDIKTYPDATDVWVHTKDLDPRIGMCLDVGHDLRNGCDPVADLKKYHTRVFDMHIKDVTDSSKAGVGIEIGRGKIDFPALIRMMREVNYTGMCSLEYEKDMKDPFLGIAESIGYFKAVSDLT", "values": [
      {"measurement": "soluble on expression in E. coli", "result": "not soluble"}
    ]},
    {"sequence": "SNADDMIILKGVNIFPIQIETILLQFKELGSDYLITLETAESNDEMTVEVELSQLFTDDYGRLQALTREITRQLKDEILVTPRVKLVPKGALPKSEGKAVRVKDLRKTF", "values": [
      {"measurement": "soluble on expression in E. coli", "result": "soluble"}
    ]},
    {"sequence": "MGSDKIHHHHHHMTPIQSGILLEHRRFAIFMEAMIQGEFDAIRQGCKKFCQTLQELQQQYPDAGLGAVLAFGNDVWRDLDCNHCAAELKPFTPLGKGLAPATQRDLLIHIQSLRHDVNFTLAQAALAAFGSAIRIEEETHGFRWVEDRDLSGFIDGTENPQGDARHAVAIIPEGQPDAGGSYVFTQRWEHNLKQLQRFSVEQQEQMIGRTKQDNEELSSDERPVTSHLSRVDLKEDGKGLKILRQSLPYGTASGKNGLYFVAYCARLHNIEQQLLSMFGGRDGKRDDMLRFTRAVSGSYFFAPSLDQLLSL", "values": [
      {"measurement": "soluble on expression in E. coli", "result": "not soluble"}
    ]}
  ]
}
